Like-named read-outs stand apart in the source and are kept apart here. Positions of bridges follow the written chain, without caps; N, C: chain ends. Non-standard residues stand in square brackets, D forms with d. Chains are numbered I, II in the order given. No end group written: not given here. Nle = CCCC[C@H](N)C(=O)O; Aib = CC(C)(N)C(=O)O

The values that follow come from patent US20190233495A1 (Sanofi, published 2019).

Common to all, as to test: cell-based or functional assay
Test [1] deals with T1, RXFP1 receptor (UniProt Q9HBX9 1-757, limits assumed).
T1 sequence (looked up): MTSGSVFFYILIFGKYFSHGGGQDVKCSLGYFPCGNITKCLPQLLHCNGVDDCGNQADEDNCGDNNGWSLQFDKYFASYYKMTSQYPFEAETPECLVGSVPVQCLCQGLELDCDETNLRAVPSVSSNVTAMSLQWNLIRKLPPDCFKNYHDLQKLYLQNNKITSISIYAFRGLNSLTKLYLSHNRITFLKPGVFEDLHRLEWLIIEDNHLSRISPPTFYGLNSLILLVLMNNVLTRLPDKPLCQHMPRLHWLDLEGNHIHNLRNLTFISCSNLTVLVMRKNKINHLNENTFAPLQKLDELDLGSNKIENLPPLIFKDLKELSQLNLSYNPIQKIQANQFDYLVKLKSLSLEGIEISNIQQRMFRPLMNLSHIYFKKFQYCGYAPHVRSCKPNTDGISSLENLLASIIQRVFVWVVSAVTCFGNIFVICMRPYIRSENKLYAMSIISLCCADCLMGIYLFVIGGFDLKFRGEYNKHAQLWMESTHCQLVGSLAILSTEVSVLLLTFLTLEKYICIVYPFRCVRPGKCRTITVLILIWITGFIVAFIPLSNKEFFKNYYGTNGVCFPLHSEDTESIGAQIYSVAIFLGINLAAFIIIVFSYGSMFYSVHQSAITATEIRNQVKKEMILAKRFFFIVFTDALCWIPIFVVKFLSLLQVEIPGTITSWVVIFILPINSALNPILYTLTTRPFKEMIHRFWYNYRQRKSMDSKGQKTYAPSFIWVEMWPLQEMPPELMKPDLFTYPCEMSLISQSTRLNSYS

The target of test [2] is T1, RXFP1 receptor. The source holds these as a separate data set.
In test [3] the target is T1, RXFP1 receptor. This is another data set of the same source.

B1: SEQ ID NO: 49 (peptide)
peptide: Ac-LEGREKVRRQI[Aib][Aib]EG[Nle]STWS[Aib]RKK-NH2
SMILES: CCCC[C@H](NC(=O)CNC(=O)[C@H](CCC(=O)O)NC(=O)C(C)(C)NC(=O)C(C)(C)NC(=O)[C@@H](NC(=O)[C@H](CCC(N)=O)NC(=O)[C@H](CCCNC(=N)N)NC(=O)[C@H](CCCNC(=N)N)NC(=O)[C@@H](NC(=O)[C@H](CCCCN)NC(=O)[C@H](CCC(=O)O)NC(=O)[C@H](CCCNC(=N)N)NC(=O)CNC(=O)[C@H](CCC(=O)O)NC(=O)[C@H](CC(C)C)NC(C)=O)C(C)C)[C@@H](C)CC)C(=O)N[C@@H](CO)C(=O)N[C@H](C(=O)N[C@@H](Cc1c[nH]c2ccccc12)C(=O)N[C@@H](CO)C(=O)NC(C)(C)C(=O)N[C@@H](CCCNC(=N)N)C(=O)N[C@@H](CCCCN)C(=O)N[C@@H](CCCCN)C(N)=O)[C@@H](C)O
For the molecule B1, in test [1], the “cAMP assay in OVCAR 5 cells EC50” value was determined as 22.2 nM and the “cAMP assay in OVCAR 5 cells Emax” value is 95%.
As to H-VIKLSGRELVRAQIAISGMSTWSKRSL-NH2 [B7-33 C11.23S], in test [2], the “cAMP assay in OVCAR 5 cells EC50” value amounted to 1640 nM and the “cAMP assay in OVCAR 5 cells Emax” value worked out at 90%.
The like results for Ac-VIKLSGRELVRAQIAISGMSTWSKKKK-NH2 [KKKK(AcB7-29 C11.23S)] were, in that order, 206 nM and 84%.

B2: SEQ ID NO: 48 (peptide)
peptide: Ac-ELEGREKVRAAI[Aib][Aib]EG[Nle]STWS[Aib]RKK-NH2
SMILES: CCCC[C@H](NC(=O)CNC(=O)[C@H](CCC(=O)O)NC(=O)C(C)(C)NC(=O)C(C)(C)NC(=O)[C@@H](NC(=O)[C@H](C)NC(=O)[C@H](C)NC(=O)[C@H](CCCNC(=N)N)NC(=O)[C@@H](NC(=O)[C@H](CCCCN)NC(=O)[C@H](CCC(=O)O)NC(=O)[C@H](CCCNC(=N)N)NC(=O)CNC(=O)[C@H](CCC(=O)O)NC(=O)[C@H](CC(C)C)NC(=O)[C@H](CCC(=O)O)NC(C)=O)C(C)C)[C@@H](C)CC)C(=O)N[C@@H](CO)C(=O)N[C@H](C(=O)N[C@@H](Cc1c[nH]c2ccccc12)C(=O)N[C@@H](CO)C(=O)NC(C)(C)C(=O)N[C@@H](CCCNC(=N)N)C(=O)N[C@@H](CCCCN)C(=O)N[C@@H](CCCCN)C(N)=O)[C@@H](C)O
Consider B2, for which, in test [1], the “cAMP assay in OVCAR 5 cells EC50” value was 19.5 nM and the “cAMP assay in OVCAR 5 cells Emax” value was found to be 91%.

B3: Human Relaxin-2 (H2 Relaxin) (ligand)
chain 1: H-QLYSALANKCCHVGCTKRSLARFC-OH
chain 2: H-DSWMEEVIKLCGRELVRAQIAICGMSTWS
modifications: disulfide I:10-I:15, I:11-II:11, I:24-II:23
As for B3, the “cAMP assay in OVCAR 5 cells EC50” value in test [3] lay in the range of 0.1 to 0.3 nM.
For the molecule Ac-VIKLSGRELVRAQIAISGMSTWSKRSL-NH2 [AcB7-33 C11.23S], in test [2], the “cAMP assay in OVCAR 5 cells EC50” value came out at 929 nM and the “cAMP assay in OVCAR 5 cells Emax” value was determined as 70%.
